According to the supplement of paper PMC9170038:

Tested on: MS2 coat protein
Assay: apparent KD of MS2 coat protein; designed switch direction (-1 OFF switch, 1 ON switch): 1; higher = weaker reporter binding
Outline: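 Transcription of designed RNA switches on Illumina chips was done by stalled E. coli RNA polymerase. SNAP-549-labelled MS2 coat protein was then titrated in doubling steps from 0.7 or 1.5 nM to 3 µM, with steps of 0.8–1.5 h at the lowest and 10–20 min at the highest concentration. The per-design median over clusters of curve-fitted normalised fluorescence is reported as apparent KD.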

[1] = input ligand: microRNA oligo, concentration not stated
[2] = Eterna round: R95, input ligand: FMN 200 uM
[3] = Eterna round: R95, input ligand: microRNA oligo, concentration not stated
[4] = Eterna round: R95, input ligand: none

Sequence | apparent KD of MS2 coat protein [1] [nM] | apparent KD of MS2 coat protein (input ligand: FMN 200 uM) [nM] | apparent KD of MS2 coat protein (input ligand: none) [nM] | apparent KD of MS2 coat protein [2] [nM] | apparent KD of MS2 coat protein [3] [nM] | apparent KD of MS2 coat protein [4] [nM]
UGAAUAAUGUUAGGAUAUACAUGAGGAAUCCUCGUAGAAGGAACAUGACAUGAGGAUCACCCAUGUAGCGCUCAGAAGAGCGCA [Mat - Same State NG 1 - JL mod - D50] (Eterna round: R96, puzzle: Same State NG 1) | 73.4 |  |  |  |  | 
UUCACCUUAUUUUACAUGAGGAUCACCCAUGUUUUUUUUACGUAGGAUAUCGAUGCUUGAUUGUUCGAGAAGGACGAUGUAAGU [JR_SSND3_Sub054] (Eterna round: R96, puzzle: Same State NG 3) | 24.3 | 27.3 | 31.1 |  |  | 
UAGUACAUGCUUUUUGUCUGUCUUAGAUCACAUGAGGAUCACCCAUGUUUGGUGAAAGUUAUAUAGUUUAUGACUAU [JR_SHM208A_Sub059] (puzzle: Sensor for hsa-mir-208a) |  |  |  | 114 | 96.8 | 162
GUGUUACAUGAGGAUCACCCAUGUUGUUUUAGAUAAGGAUAUAUGGUAACGAGAGAAAUAAUAGAAGGUAUUAGGC [JR_SS1_Sub062] (puzzle: Same State 1) |  |  |  |  | 29.9 | 
CGUGAACAUGAGGAUCACCCAUGUGAAAAACGUAGAGGAUAUGUCACAUGAGUGUAAAAGACAGAAGGCUAUCGUG [Mod 2 of Round 1 starryjess' Mod pf Nando] (Eterna round: R96, puzzle: Same State 1) | 172 | 35.4 | 243 |  |  | 
GAGAGAGGGUGAGGAUAUGCAGUAAUAAUGAUAGCAGAAGGCACAGACAUGAGGAUCACCCAUGUGGGAAUAAUCCAGAGAGAG [Parity 2 - Jieux - Same State NG 1] (Eterna round: R96, puzzle: Same State NG 1) | 177 | 291 | 305 |  |  | 
CUGCACCGUGGAGGAUAUGGGCUGAGGCCAGGACAACCCUGGCCAACAUGAGGAUCACCCAUGUCCCAGAAGGCCACAGUGCUA [Zaenmaxe] (Eterna round: R96, puzzle: Same State NG 2) | 86.7 | 15.1 | 112 |  |  | 
AUUAUUUAUGCAGGAUAUGAUUAACAUGAGGAUCACCCAUGUGGUGUUGUGAGUAAGGAGAGUGAUCAGAAGGGCAUCUUUUUU [JMF's solution 44] (Eterna round: R96, puzzle: Same State NG 2) | 227 | 610 | 414 |  |  | 
AAACAUGAGGAUCACCCAUGUCGAUCAGAACUCUGAUCUGCUCAGGAUAUCCGAAUGCGCGUUUCGGAGAAGGGAGAAAUGUGA [Lareraedqu] (Eterna round: R96, puzzle: Same State NG 3) | 36.4 | 69.8 | 53.2 |  |  | 
CUGCUACAUGAGGAUCACCCAUGUUGGAGUGAUGCAGGAUAUGUGUGACCAGAAGAUGAAACAGAAGGGCAAAGAA [JR_SS!_Sub004] (puzzle: Same State 1) |  |  |  | 96.2 | 75.7 | 101
UGCUACGGAGACAUGAGGAUCACCCAUGUCGCUGCUUAAGGGCAGGAUAUGAAAGGGAAUCCCAAUCAGAAGGGCCGCAGCCAC [Isanxeanor] (Eterna round: R96, puzzle: Same State NG 3) | 22.8 | 35.3 | 32.6 |  |  | 
GCCGCGUUUCGCGCCUACAUGAGGAUCACCCAUGUUUGUAGGCAGGAUAUCGUUUGCUUUGCAGGCGAGAAGGGCUGUUGUGGC [salish99_SSNG3_R04_016] (Eterna round: R96, puzzle: Same State NG 3) | 39.1 | 43 | 46.5 |  |  | 
CUGAGCAAUCAAGGAUAUCACGUCGAUUAGACGUGAGAAGGUGAUCAUAACAUGAGGAUCACCCAUGUAUUACAUGGAGCUCAG [Brourd's SSNG1/1-A2 mod 1] (Eterna round: R96, puzzle: Same State NG 1) | 124 | 533 | 397 |  |  | 
AUAAGUUCGAUGCUCGUCUCUCCGUACUAACAUGAGGAUCACCCAUGUGGUCGGGAAGUAGCCCGACCAGUAUGGCC [Vearebe] (puzzle: Sensor for hsa-mir-208a) |  |  |  | 65.4 | 53.3 | 82.1
AACAAUCUAUCUGAGGAUAUCAUGAAAUAAACAUGAGGAUCACCCAUGUGCUGGAAAACUGCAUAUGAGAAGGCAGAUAGAUUGA [salish99_ss2_r3_037] (puzzle: Same State 2) |  |  |  | 32.1 | 237 | 395
UGGCUCAGACGAGGAUAUAUGUAAUAACAUGAGGAUCACCCAUGUGUCGAGCUUCGGCUCGACACAUAGAAGGCGUCUGAGCCU [SSNG2/2-A3] (Eterna round: R96, puzzle: Same State NG 2) | 20.2 | 12.7 | 33.3 |  |  | 
GGAAGGAGGUCAGGAUAUGAAUGGAAAGUACAUGAGGAUCACCCAUGUUAUGGAGGAAGGAAACGUUAGAAGGGAUAAGGAAGG [AK SSNG2-V2-2] (Eterna round: R96, puzzle: Same State NG 2) | 26.8 | 32 | 41.5 |  |  | 
CAGCACUGUCGAGAGGAUAUGCGGUGGUAGACAUGAGGAUCACCCAUGUUAGCGACAGCAUCACGGCAGAAGGCUCUGCUGCUGC [Soteed Omei mod 41] (puzzle: Same State 2) |  |  |  | 37.3 | 96.2 | 146
UUAUCCUUUUUUUACAUGAGGAUCACCCAUGUUUUUCUUACGUAGGAUAUCGUUGUUUUUUUUUACGAGAAGGACGUAGUAAGA [JR_SSND3_Sub061] (Eterna round: R96, puzzle: Same State NG 3) | 31.9 | 41.3 | 37.1 |  |  | 
AUUAUUUAUGCAGGAUAUGAUUAACAUGAGGAUCACCCAUGUGGUGUUGUGAGUAAGGAGAGUGAUCAGAAGGGCAGUUUUUUU [JMF's solution 43] (Eterna round: R96, puzzle: Same State NG 2) | 231 | 568 | 406 |  |  | 
CUCAAAACAAGUUGCAGUGUUCGUCUUUAACAUGAGGAUCACCCAUGUAAUAGCCCAGUAGAAGCGCUCGGGCCACC [Ceedbeen] (puzzle: Sensor for hsa-mir-208a) |  |  |  | 34.5 | 26.4 | 31.9
AUAAGUUUGAUGCUCGUCUCUUCGUACAGACAUGAGGAUCACCCAUGUAGUCGGGAAGUAGCCCGGCCAGUAUGACC [Usraisqu] (puzzle: Sensor for hsa-mir-208a) |  |  |  | 197 | 40.5 | 468
UUUAGUUGCGGGCAGGAUAUGUAUUAAAAUACAUGAGGAUCACCCAUGUGAGAUCAUAAAGAUCUACAGAAGGGCCAAUCGCGAC [Laonerce - 18] (puzzle: Same State 2) |  |  |  | 13.4 | 69.4 | 91.6
AAUUAAUUAAUACAUGAGGAUCACCCAUGUAAUUAUUAGAUCUAGGAUAUCAGCUCGUUUAGAGCUGAGAAGGAGAUCACAUGU [SSNG3/18-B3] (Eterna round: R96, puzzle: Same State NG 3) | 15.1 |  |  |  |  | 
